Test results taken from US20220281936.

Chain of Mouse IL12 (unmodified) (chain, as listed by the source, chain 1 of 2): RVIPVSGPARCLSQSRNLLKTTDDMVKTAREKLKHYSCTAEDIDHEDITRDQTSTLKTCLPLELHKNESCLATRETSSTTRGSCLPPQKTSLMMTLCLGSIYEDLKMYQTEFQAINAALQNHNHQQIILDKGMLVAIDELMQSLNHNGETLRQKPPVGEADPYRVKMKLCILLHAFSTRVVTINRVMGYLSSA
Chain of Mouse IL12 (unmodified) (chain, as listed by the source, chain 2 of 2): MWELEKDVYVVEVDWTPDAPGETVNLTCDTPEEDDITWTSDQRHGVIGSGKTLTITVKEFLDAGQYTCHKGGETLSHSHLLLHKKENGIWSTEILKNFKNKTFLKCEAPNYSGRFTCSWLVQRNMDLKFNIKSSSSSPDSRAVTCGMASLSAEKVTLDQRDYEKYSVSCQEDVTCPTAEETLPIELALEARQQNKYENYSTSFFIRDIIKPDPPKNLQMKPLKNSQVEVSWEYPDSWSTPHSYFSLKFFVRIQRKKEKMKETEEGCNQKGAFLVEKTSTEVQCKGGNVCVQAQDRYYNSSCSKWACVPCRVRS
Chain of Recombinant mouse matrix metalloproteinase-2 (MMP2) (chain, as listed by the source): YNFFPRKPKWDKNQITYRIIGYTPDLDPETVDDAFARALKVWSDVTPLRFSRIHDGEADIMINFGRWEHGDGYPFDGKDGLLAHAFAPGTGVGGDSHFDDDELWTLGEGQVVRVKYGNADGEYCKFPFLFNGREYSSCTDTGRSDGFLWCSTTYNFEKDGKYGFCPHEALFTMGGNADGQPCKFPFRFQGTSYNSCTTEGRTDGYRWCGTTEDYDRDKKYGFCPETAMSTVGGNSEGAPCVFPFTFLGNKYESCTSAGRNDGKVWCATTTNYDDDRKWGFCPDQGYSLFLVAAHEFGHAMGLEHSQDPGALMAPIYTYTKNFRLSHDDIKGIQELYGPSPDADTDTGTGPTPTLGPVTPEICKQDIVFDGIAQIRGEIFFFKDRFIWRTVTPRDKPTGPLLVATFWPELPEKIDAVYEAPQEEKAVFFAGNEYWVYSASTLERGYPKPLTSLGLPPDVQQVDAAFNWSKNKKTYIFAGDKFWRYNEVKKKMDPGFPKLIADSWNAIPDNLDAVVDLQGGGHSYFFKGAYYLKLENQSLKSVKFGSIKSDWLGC
Chain of IL12Rβ1-LS-IL12 (chain, as listed by the source, chain 1 of 2): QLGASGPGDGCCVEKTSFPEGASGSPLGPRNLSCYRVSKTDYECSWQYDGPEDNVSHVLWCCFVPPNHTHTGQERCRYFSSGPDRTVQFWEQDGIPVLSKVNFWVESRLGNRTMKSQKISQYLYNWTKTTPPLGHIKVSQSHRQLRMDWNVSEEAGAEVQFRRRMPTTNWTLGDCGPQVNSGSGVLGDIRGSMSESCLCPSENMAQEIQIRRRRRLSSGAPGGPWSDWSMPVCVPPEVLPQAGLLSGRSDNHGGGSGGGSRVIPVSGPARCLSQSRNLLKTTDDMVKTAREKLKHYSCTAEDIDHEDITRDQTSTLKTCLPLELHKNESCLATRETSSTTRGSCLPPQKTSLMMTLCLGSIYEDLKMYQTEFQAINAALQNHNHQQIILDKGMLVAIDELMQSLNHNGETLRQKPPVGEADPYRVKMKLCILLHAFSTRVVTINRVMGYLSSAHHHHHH
Chain of IL12Rβ1-LS-IL12 (chain, as listed by the source, chain 2 of 2): as the sequence (chain, as listed by the source, chain 2 of 2) above

| Substance | proteolytic cleavage, SDS-PAGE (30 min, 37 C) (IL12Rβ1-VP-IL12) | proteolytic cleavage, SDS-PAGE (Mouse IL12 (unmodified)) | proteolytic cleavage, SDS-PAGE (IL12Rβ1-LS-IL12) |
| --- | --- | --- | --- |
| Recombinant mouse matrix metalloproteinase-2 (MMP2) | MMP2 and MMP9 fully cleaved the IL12Rβ1 portion, yielding IL12 heterodimer (-60 kDa) | These enzymes had no effect on IL12 itself |  |
| Recombinant human urokinase plasminogen activator (uPA) |  | These enzymes had no effect on IL12 itself | IL12Rβ1-LS-IL12 containing LSGRSDNH (SEQ ID NO:49) substrate was cleaved by uPA |
